Where “and” joins values, the source holds several entries; their conditions need not be identical. Equal values may be shown once.
Legend:
牛血清白蛋白(BSA) (bovine) [1] = molecular target: 牛血清白蛋白(BSA) (bovine) (UniProt P02769); assay: sandwich ELISA, coat B2 2 ug/ml, BSA 1 ng/ml, detection biotin-B6 0.2 ug/ml
牛血清白蛋白(BSA) (bovine) [2] = molecular target: 牛血清白蛋白(BSA) (bovine) (UniProt P02769); assay: indirect ELISA, BSA coated at 1 ug/ml, purified antibody at dilution 4K, HRP goat anti-mouse IgG
牛血清白蛋白(BSA) (bovine) [3] = molecular target: 牛血清白蛋白(BSA) (bovine) (UniProt P02769); assay: ELISA, BSA coated at 1 ug/ml, biotin-labelled antibody at dilution 512K, HRP-avidin
牛血清白蛋白(BSA) (bovine) [4] = molecular target: 牛血清白蛋白(BSA) (bovine) (UniProt P02769); assay: sandwich ELISA, coat B2 2 ug/ml, BSA 12 ng/ml, detection biotin-B6 0.2 ug/ml
牛血清白蛋白(BSA) (bovine) [5] = molecular target: 牛血清白蛋白(BSA) (bovine) (UniProt P02769); assay: indirect ELISA, BSA coated at 1 ug/ml, purified antibody at dilution 2K, HRP goat anti-mouse IgG
牛血清白蛋白(BSA) (bovine) [6] = molecular target: 牛血清白蛋白(BSA) (bovine) (UniProt P02769); assay: sandwich ELISA, coat B2 2 ug/ml, BSA 12 ng/ml, detection biotin-B6 0.2 ug/ml, mean of A and B
Vero细胞裂解液 [7] = assay: sandwich ELISA, coat B2, detection biotin-B6, lysate 1 mg/ml
HEK293细胞裂解液 [8] = assay: as above
CHO细胞裂解液 [9] = assay: as above
牛血清白蛋白(BSA) (bovine) [10] = molecular target: 牛血清白蛋白(BSA) (bovine) (UniProt P02769); assay: sandwich ELISA, coat B2 2 ug/ml, BSA 1 ng/ml, detection biotin-B4 0.2 ug/ml
牛血清白蛋白(BSA) (bovine) [11] = molecular target: 牛血清白蛋白(BSA) (bovine) (UniProt P02769); assay: sandwich ELISA, coat B2 2 ug/ml, BSA 1.5 ng/ml, detection biotin-B6 0.2 ug/ml
牛血清白蛋白(BSA) (bovine) [12] = molecular target: 牛血清白蛋白(BSA) (bovine) (UniProt P02769); assay: sandwich ELISA, coat B2 2 ug/ml, BSA 1 ng/ml (positive sample), detection biotin-B6 0.2 ug/ml
牛血清白蛋白(BSA) (bovine) [13] = molecular target: 牛血清白蛋白(BSA) (bovine) (UniProt P02769); assay: sandwich ELISA, coat B2 2 ug/ml, BSA 0.75 ng/ml, detection biotin-B6 0.2 ug/ml, mean of A and B
牛血清白蛋白(BSA) (bovine) [14] = molecular target: 牛血清白蛋白(BSA) (bovine) (UniProt P02769); assay: sandwich ELISA, coat B2 2 ug/ml, BSA 6 ng/ml, detection biotin-B6 0.2 ug/ml
牛血清白蛋白(BSA) (bovine) [15] = molecular target: 牛血清白蛋白(BSA) (bovine) (UniProt P02769); assay: sandwich ELISA, coat B2 2 ug/ml, BSA 1 ng/ml, detection biotin-B1 0.2 ug/ml
牛血清白蛋白(BSA) (bovine) [16] = molecular target: 牛血清白蛋白(BSA) (bovine) (UniProt P02769); assay: sandwich ELISA, coat B2 2 ug/ml, BSA 1 ng/ml, detection biotin-B3 0.2 ug/ml
Vero细胞裂解液 [17] = assay: sandwich ELISA, coat B2, detection biotin-B6, lysate 62.5 ug/ml
HEK293细胞裂解液 [18] = assay: as above
CHO细胞裂解液 [19] = assay: as above
牛血清白蛋白(BSA) (bovine) [20] = molecular target: 牛血清白蛋白(BSA) (bovine) (UniProt P02769); assay: ELISA, BSA coated at 1 ug/ml, biotin-labelled antibody at dilution 2K, HRP-avidin
牛血清白蛋白(BSA) (bovine) [21] = molecular target: 牛血清白蛋白(BSA) (bovine) (UniProt P02769); assay: ELISA, BSA coated at 1 ug/ml, biotin-labelled antibody at dilution 8K, HRP-avidin
Vero细胞裂解液 [22] = assay: sandwich ELISA, coat B2, detection biotin-B6, lysate 7.81 ug/ml
HEK293细胞裂解液 [23] = assay: as above
CHO细胞裂解液 [24] = assay: as above
Vero细胞裂解液 [25] = assay: sandwich ELISA, coat B2, detection biotin-B6, lysate 31.25 ug/ml
HEK293细胞裂解液 [26] = assay: as above
CHO细胞裂解液 [27] = assay: as above
牛血清白蛋白(BSA) (bovine) [28] = molecular target: 牛血清白蛋白(BSA) (bovine) (UniProt P02769); assay: indirect ELISA, BSA coated at 1 ug/ml, purified antibody at dilution 64K, HRP goat anti-mouse IgG
牛血清白蛋白(BSA) (bovine) [29] = molecular target: 牛血清白蛋白(BSA) (bovine) (UniProt P02769); assay: ELISA, BSA coated at 1 ug/ml, biotin-labelled antibody at dilution 256K, HRP-avidin
牛血清白蛋白(BSA) (bovine) [30] = molecular target: 牛血清白蛋白(BSA) (bovine) (UniProt P02769); assay: sandwich ELISA, coat B2 2 ug/ml, BSA 48 ng/ml, detection biotin-B6 0.2 ug/ml
牛血清白蛋白(BSA) (bovine) [31] = molecular target: 牛血清白蛋白(BSA) (bovine) (UniProt P02769); assay: sandwich ELISA, coat B2 2 ug/ml, BSA 48 ng/ml, detection biotin-B6 0.2 ug/ml, mean of A and B
Vero细胞裂解液 [32] = assay: sandwich ELISA, coat B2, detection biotin-B6, lysate 250 ug/ml
HEK293细胞裂解液 [33] = assay: as above
CHO细胞裂解液 [34] = assay: as above
牛血清白蛋白(BSA) (bovine) [35] = molecular target: 牛血清白蛋白(BSA) (bovine) (UniProt P02769); assay: sandwich ELISA, coat B2 2 ug/ml, BSA 1.5 ng/ml, detection biotin-B6 0.2 ug/ml, mean of A and B
牛血清白蛋白(BSA) (bovine) [36] = molecular target: 牛血清白蛋白(BSA) (bovine) (UniProt P02769); assay: sandwich ELISA, coat B2 2 ug/ml, BSA 0.75 ng/ml, detection biotin-B6 0.2 ug/ml

UniProt P02769, sequence (P02769 25-607): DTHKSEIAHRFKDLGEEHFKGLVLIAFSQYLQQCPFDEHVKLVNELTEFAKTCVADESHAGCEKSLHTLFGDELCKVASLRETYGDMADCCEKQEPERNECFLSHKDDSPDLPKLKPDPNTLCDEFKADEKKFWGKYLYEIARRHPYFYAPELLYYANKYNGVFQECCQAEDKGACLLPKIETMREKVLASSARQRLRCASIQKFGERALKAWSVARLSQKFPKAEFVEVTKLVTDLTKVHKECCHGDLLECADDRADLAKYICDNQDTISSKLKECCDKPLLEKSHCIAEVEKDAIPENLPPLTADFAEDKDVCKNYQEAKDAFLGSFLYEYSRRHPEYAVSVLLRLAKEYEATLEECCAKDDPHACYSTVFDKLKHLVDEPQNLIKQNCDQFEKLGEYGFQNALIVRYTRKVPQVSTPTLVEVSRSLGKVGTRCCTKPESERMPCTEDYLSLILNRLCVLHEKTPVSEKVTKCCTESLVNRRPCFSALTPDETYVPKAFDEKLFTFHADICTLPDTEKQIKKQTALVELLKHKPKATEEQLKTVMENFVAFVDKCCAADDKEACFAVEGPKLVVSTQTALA

OD450 (牛血清白蛋白(BSA) (bovine) [1]): 0.38 and 0.378
OD450 (牛血清白蛋白(BSA) (bovine) [2]): 0.9
OD450 (牛血清白蛋白(BSA) (bovine) [3]): 0.308
OD450 (牛血清白蛋白(BSA) (bovine) [4]): 1.01 and 1
OD450 (牛血清白蛋白(BSA) (bovine) [5]): 1.69
OD450 (平均值) (牛血清白蛋白(BSA) (bovine) [6]): 1
OD450 (Vero细胞裂解液 [7]): 0.129
OD450 (HEK293细胞裂解液 [8]): 0.142
OD450 (CHO细胞裂解液 [9]): 0.132
OD450 (牛血清白蛋白(BSA) (bovine) [10]): 0.319 and 0.332
OD450 (牛血清白蛋白(BSA) (bovine) [11]): 0.404 and 0.412
OD450 (牛血清白蛋白(BSA) (bovine) [12]): 0.392 and 0.389
OD450 (平均值) (牛血清白蛋白(BSA) (bovine) [13]): 0.303
OD450 (牛血清白蛋白(BSA) (bovine) [14]): 0.684 and 0.692
OD450 (牛血清白蛋白(BSA) (bovine) [15]): 0.312 and 0.315
OD450 (牛血清白蛋白(BSA) (bovine) [16]): 0.342 and 0.346
OD450 (Vero细胞裂解液 [17]): 0.137
OD450 (HEK293细胞裂解液 [18]): 0.142
OD450 (CHO细胞裂解液 [19]): 0.129
OD450 (牛血清白蛋白(BSA) (bovine) [20]): 2.21
OD450 (牛血清白蛋白(BSA) (bovine) [21]): 1.81
OD450 (Vero细胞裂解液 [22]): 0.138
OD450 (HEK293细胞裂解液 [23]): 0.132
OD450 (CHO细胞裂解液 [24]): 0.136
OD450 (Vero细胞裂解液 [25]): 0.142
OD450 (HEK293细胞裂解液 [26]): 0.134
OD450 (CHO细胞裂解液 [27]): 0.136
OD450 (牛血清白蛋白(BSA) (bovine) [28]): 0.335
OD450 (牛血清白蛋白(BSA) (bovine) [29]): 0.509
OD450 (牛血清白蛋白(BSA) (bovine) [30]): 2.2 and 2.21
OD450 (平均值) (牛血清白蛋白(BSA) (bovine) [31]): 2.21
OD450 (Vero细胞裂解液 [32]): 0.14
OD450 (HEK293细胞裂解液 [33]): 0.134
OD450 (CHO细胞裂解液 [34]): 0.134
OD450 (平均值) (牛血清白蛋白(BSA) (bovine) [35]): 0.408
OD450 (牛血清白蛋白(BSA) (bovine) [36]): 0.31 and 0.296
B1: BSA抗体B2 (antibody, V domains shown)
VH: VKLQESGGGLVKPGGSLKLSCAASGFTFSLYDESWVRQTPEKRLEWVAEIFLGVYRYVPESKVRFTMSRDNAKNTLYLQMSSLRSEDTAMYYCVRLCYWEPEVKKCWGQGTTVTVSS
VL: DIELTQSPLTLSVTIGQPASISCESDLSLKESLDWLLQRPGQSPKRLIYEDLNADCGVPDRFTGSGSGTDSTLKISRVEAEDLGVYYCEIKGTFRWSFGGGTKLEIK

— patent publication CN114591430A
